Sequences and labels used below:
T1: SMCR8 of the STREP-STREP-FLAG-ARF1-SMCR8 fusion (UniProt Q8TEV9 1-937)
T1 construct: SMCR8; In the structure its N-terminus is joined to the C terminus of ARF1 E17-K181, which carries the N-terminal STREP-STREP-FLAG tag, on one chain; also called Smith-Magenis chromosome regions 8
T1 sequence: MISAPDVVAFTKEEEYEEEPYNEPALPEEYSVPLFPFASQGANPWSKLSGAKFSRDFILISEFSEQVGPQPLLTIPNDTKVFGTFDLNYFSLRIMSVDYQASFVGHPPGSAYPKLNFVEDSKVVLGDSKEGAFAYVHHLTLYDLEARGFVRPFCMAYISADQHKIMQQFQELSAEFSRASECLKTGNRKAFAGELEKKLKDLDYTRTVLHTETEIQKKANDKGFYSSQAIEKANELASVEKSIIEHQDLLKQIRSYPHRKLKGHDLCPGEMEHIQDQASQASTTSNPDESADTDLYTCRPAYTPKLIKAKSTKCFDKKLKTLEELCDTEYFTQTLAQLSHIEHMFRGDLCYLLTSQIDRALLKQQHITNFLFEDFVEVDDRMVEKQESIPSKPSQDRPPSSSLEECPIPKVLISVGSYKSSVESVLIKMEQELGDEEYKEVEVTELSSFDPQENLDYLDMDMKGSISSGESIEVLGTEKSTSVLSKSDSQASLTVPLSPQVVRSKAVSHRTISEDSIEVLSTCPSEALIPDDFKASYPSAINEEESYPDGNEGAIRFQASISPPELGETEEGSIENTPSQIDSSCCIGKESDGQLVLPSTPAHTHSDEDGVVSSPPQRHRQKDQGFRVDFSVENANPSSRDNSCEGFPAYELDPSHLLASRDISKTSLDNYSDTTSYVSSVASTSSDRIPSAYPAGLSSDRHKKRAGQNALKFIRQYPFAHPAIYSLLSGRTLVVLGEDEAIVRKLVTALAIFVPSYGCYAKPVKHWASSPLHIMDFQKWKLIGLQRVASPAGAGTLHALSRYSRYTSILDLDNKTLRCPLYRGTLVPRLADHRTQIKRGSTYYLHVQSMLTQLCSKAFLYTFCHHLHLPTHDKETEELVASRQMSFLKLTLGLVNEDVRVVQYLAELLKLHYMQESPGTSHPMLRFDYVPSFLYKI

B1: C9orf72 (subunit of the C9orf72:ARF1-SMCR8:WDR41 complex) (natural protein)
chain: MSTLCPPPSPAVAKTEIALSGKSPLLAATFAYWDNILGPRVRHIWAPKTEQVLLSDGEITFLANHTLNGEILRNAESGAIDVKFFVLSEKGVIIVSLIFDGNWNGDRSTYGLSIILPQTELSFYLPLHRVCVDRLTHIIRKGRIWMHKERQENVQKIILEGTERMEDQGQSIIPMLTGEVIPVMELLSSMKSHSVPEEIDIADTVLNDDDIGDSCHEGFLLNAISSHLQTCGCSVVVGSSAEKVNKIVRTLCLFLTPAERKCSRLCEAESSFKYESGLFVQGLLKDSTGSFVLPFRQVMYAPYPTTHIDVDVNTVKQMPPCHEHIYNQRRYMRSELTAFWRATSEEDMAQDTIIYTDESFTPDLNIFQDVLHRDTLVKAFLDQVFQLKPGLSLRSTFLAQFLLVLHRKALTLIKYIEDDTQKGKKPFKSLRNLKIDLDLTAEGDLNIIMALAEKIKPGLHSFIFGRPFYTSVQERDVLMTF
notes: C9orf72; not shown: GST, N-terminal, cleaved
B2: ARF1 (residues E17-K181) of the STREP-STREP-FLAG-ARF1-SMCR8 fusion (domain or fragment)
chain: not shown
notes: ARF1, residues E17-K181; In the structure this ARF1 is joined by its C terminus to the N-terminus of SMCR8 on one chain (STREP-STREP-FLAG-ARF1-SMCR8, inserted by KpnI sites); also called ARF1-GDP-BeF3^-
B3: WDR41 (subunit of the C9orf72:ARF1-SMCR8:WDR41 complex) (natural protein)
chain: MLRWLIGGGREPQGLAEKSPLQTIGEEQTQNPYTELLVLKAHHDIVRFLVQLDDYRFASAGDDGIVVVWNAQTGEKLLELNGHTQKITAIITFPSLESCEEKNQLILTASADRTVIVWDGDTTRQVQRISCFQSTVKCLTVLQRLDVWLSGGNDLCVWNRKLDLLCKTSHLSDTGISALVEIPKNCVVAAVGKELIIFRLVAPTEGSLEWDILEVKRLLDHQDNILSLINVNDLSFVTGSHVGELIIWDALDWTMQAYERNFWDPSPQLDTQQEIKLCQKSNDISIHHFTCDEENVFAAVGRGLYVYSLQMKRVIACQKTAHDSNVLHVARLPNRQLISCSEDGSVRIWELREKQQLAAEPVPTGFFNMWGFGRVSKQASQPVKKQQENATSCSLELIGDLIGHSSSVEMFLYFEDHGLVTCSADHLIILWKNGERESGLRSLRLFQKLEENGDLYLAV
notes: WDR41, cloned without a tag; also called WD repeat-containing protein 41
B4: ARF1^Q71L (residues E17-K181), GTP-locked mutant (domain or fragment)
chain: not shown
notes: ARF1, residues E17-K181 (N-terminal myristoylated amphipathic helix removed); source: E. coli BL21 DE3 star, purified (Ni-NTA, Superdex 75)

What all share (conditions): both partners purified
Assay [1] deals with T1, SMCR8 of the …. The assay is described as follows: cryo-EM structure; chimeric C9orf72:ARF1-SMCR8:WDR41 complex, GDP-bound, incubated with BeF3^- overnight; 20 mM HEPES pH 7.4, 200 mM NaCl, 2 mM MgCl2, 0.5 mM TCEP; 3.9 Å reconstruction.
Assay [2] deals with B1. The description is as above.
The target in assay [3] is T2, C9orf72:SMCR8:WDR41 complex (wild type) (UniProt Q96LT7 1-481; Q8TEV9 1-937; Q9HAD4 1-459).
T2 construct: C9orf72; SMCR8 (Smith-Magenis chromosome regions 8); WDR41 (WD repeat-containing protein 41), cloned without a tag; The methods describe the purification for the fusion complex; also called C9orf72 complex; GAP complex; not shown: GST, N-terminal, cleaved; copies: + +
The assay is described as follows: SEC; 15 μM C9orf72:SMCR8:WDR41 incubated with 15-fold ARF1^Q71L in 500 μl overnight, injected into Superose 6 Increase 10/300. (SEC sorts molecules by how far they enter the pores of the column.)

As for B1, in assay [1], the binding result is “binds”.
Turning to B2, the binding result in assay [1] and in assay [2] was “binds” throughout.
With B3, in assay [1], the binding result is on record as “binds”.
In the case of B4, the binding result in assay [3] is listed as “binds”.

Values taken from article PMC8213707, “Structural basis for the ARF GAP activity and specificity of the C9orf72 complex” (Nature Communications, 2021).
